Consider one molecule from paper PMC2857095 (The Journal of Biological Chemistry, 2010).

The target of the assay is T1, DNA mismatch repair protein MutS, wild type (E. coli, UniProt P23909 1-853).
T1 sequence (looked up): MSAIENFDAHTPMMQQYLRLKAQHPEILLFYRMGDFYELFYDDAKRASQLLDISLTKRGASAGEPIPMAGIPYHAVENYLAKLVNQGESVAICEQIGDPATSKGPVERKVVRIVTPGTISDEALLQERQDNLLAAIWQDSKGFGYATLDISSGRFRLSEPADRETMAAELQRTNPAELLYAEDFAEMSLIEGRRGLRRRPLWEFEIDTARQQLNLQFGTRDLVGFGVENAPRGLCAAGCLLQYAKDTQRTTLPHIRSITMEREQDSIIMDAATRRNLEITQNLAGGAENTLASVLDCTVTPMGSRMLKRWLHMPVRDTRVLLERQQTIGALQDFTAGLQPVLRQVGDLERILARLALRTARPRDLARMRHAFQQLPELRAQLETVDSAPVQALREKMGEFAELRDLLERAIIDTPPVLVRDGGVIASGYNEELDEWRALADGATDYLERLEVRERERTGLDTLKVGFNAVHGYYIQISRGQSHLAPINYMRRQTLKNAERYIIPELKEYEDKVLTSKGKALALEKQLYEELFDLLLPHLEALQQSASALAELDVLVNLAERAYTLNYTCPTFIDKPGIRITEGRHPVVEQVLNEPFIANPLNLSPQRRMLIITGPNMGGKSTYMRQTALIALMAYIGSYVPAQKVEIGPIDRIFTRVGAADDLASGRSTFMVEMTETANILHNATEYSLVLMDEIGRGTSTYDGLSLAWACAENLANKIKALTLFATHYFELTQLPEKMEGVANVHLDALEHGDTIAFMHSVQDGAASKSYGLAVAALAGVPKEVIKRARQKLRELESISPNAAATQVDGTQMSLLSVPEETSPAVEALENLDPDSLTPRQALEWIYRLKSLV
The assay can be described thus: SPR.

B1: MutL (natural protein, UniProt P23367 1-615, looked up)
chain: MPIQVLPPQLANQIAAGEVVERPASVVKELVENSLDAGATRIDIDIERGGAKLIRIRDNGCGIKKDELALALARHATSKIASLDDLEAIISLGFRGEALASISSVSRLTLTSRTAEQQEAWQAYAEGRDMNVTVKPAAHPVGTTLEVLDLFYNTPARRKFLRTEKTEFNHIDEIIRRIALARFDVTINLSHNGKIVRQYRAVPEGGQKERRLGAICGTAFLEQALAIEWQHGDLTLRGWVADPNHTTPALAEIQYCYVNGRMMRDRLINHAIRQACEDKLGADQQPAFVLYLEIDPHQVDVNVHPAKHEVRFHQSRLVHDFIYQGVLSVLQQQLETPLPLDDEPQPAPRSIPENRVAAGRNHFAEPAAREPVAPRYTPAPASGSRPAAPWPNAQPGYQKQQGEVYRQLLQTPAPMQKLKAPEPQEPALAANSQSFGRVLTIVHSDCALLERDGNISLLSLPVAERWLRQAQLTPGEAPVCAQPLLIPLRLKVSAEEKSALEKAQSALAELGIDFQSDAQHVTIRAVPLPLRQQNLQILIPELIGYLAKQSVFEPGNIAQWIARNLMSEHAQWSMAQAITLLADVERLCPQLVKTPPGGLLQSVDLHPAIKALKDE
For B1, the binding result is listed as “binds”.
